Data from the supplement of paper PMC7877785.
± gives the uncertainty stated by the source.

Assay: self-splicing fitness, log relative to wild type (ln ratio); higher = more splicing; Tetrahymena group I intron in knt gene, E. coli kanamycin selection, DiMSum; sequences stand for … in CUCUCU…GGAGGGAAAAGUUAUCAGGCAUGCACCUGGUAGCUAGUCUUUAAACCAAUAGAUUGCAUCGGUUUAAAAGGCAAGACCGUCAAAUUGCGGGAAAGGGGUCAACAGCCGUUCAGUACCAAGUCUCAGGGGAAACUUUGAGAUGGCCUUGCAAAGGGUAUGGUAAUAAGCUGACGGACAUGGUCCUAACCACGCAGCCAAGUCCUAAGUCAACAGAUCUUCUGUUGAUAUGGAUGCAGUUCACAGACUAAAUGUCGGUCGGGGAAGAUGUAUUCUUCUCAUAAGAUAUAGUCGGACCUCUCCUUAAUGGGAGCUAGCGGAUGAAGUGAUGCAACACUGGAGCCGCUGGGAACUAAUUUGUAUGCGAAAGUAUAUUGAUUAGUUUUGGAGUACUCGUGGUCG
Procedure, shortened: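 Colonies from six replicate transformations of E. coli BL21(DE3) were pooled and amplicon-sequenced on an Illumina HiSeq 2500. The library placed an intron with all eight P1ex-region nucleotides randomised inside the knt kanamycin-resistance gene on pET-22b(+), and cells grew overnight at 37°C or 30°C on LB agar with or without 25 μg/mL kanamycin (plus 100 μg/mL carbenicillin, 50 μM IPTG, 0.2% rhamnose). Fitness is the DiMSum error-weighted combination of wild-type-normalised replicate fold changes, kanamycin versus none.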

## GAGGAGCAAUAUUACGCACA
30 °C
  self-splicing fitness (ln): -1.61 ± 0.32
37 °C
  self-splicing fitness (ln): -0.287 ± 0.23

## UACCAGCAAUAUUACGUCAG
30 °C
  self-splicing fitness (ln): -0.702 ± 0.095
37 °C
  self-splicing fitness (ln): -1.16 ± 0.11

## GUACAGCAAUAUUACGAUCA
30 °C
  self-splicing fitness (ln): -1.83 ± 0.13
37 °C
  self-splicing fitness (ln): -0.392 ± 0.2

## GGCCAGCAAUAUUACGGUCC
30 °C
  self-splicing fitness (ln): -3.11 ± 0.21
37 °C
  self-splicing fitness (ln): -2.45 ± 0.37

## CAGCAGCAAUAUUACGGUUC
30 °C
  self-splicing fitness (ln): -2.92 ± 0.26
37 °C
  self-splicing fitness (ln): -1.5 ± 0.17

## UGGUAGCAAUAUUACGUGGG
30 °C
  self-splicing fitness (ln): -3.64 ± 0.3
37 °C
  self-splicing fitness (ln): -2.14 ± 0.19

## AACUAGCAAUAUUACGUCCC
30 °C
  self-splicing fitness (ln): -0.0622 ± 0.15
37 °C
  self-splicing fitness (ln): 0.182 ± 0.16

## UUGCAGCAAUAUUACGUUCU
30 °C
  self-splicing fitness (ln): -2.44 ± 0.12
37 °C
  self-splicing fitness (ln): -0.872 ± 0.11

## CAAAAGCAAUAUUACGUAAU
30 °C
  self-splicing fitness (ln): -3.57 ± 0.15
37 °C
  self-splicing fitness (ln): -3.04 ± 0.18

## ACCUAGCAAUAUUACGCAUG
30 °C
  self-splicing fitness (ln): -2.27 ± 0.15
37 °C
  self-splicing fitness (ln): -1.42 ± 0.14

## AUCGAGCAAUAUUACGUGCA
30 °C
  self-splicing fitness (ln): -2.85 ± 0.21
37 °C
  self-splicing fitness (ln): -1.14 ± 0.13

## GUCUAGCAAUAUUACGGCUC
30 °C
  self-splicing fitness (ln): -0.737 ± 0.086
37 °C
  self-splicing fitness (ln): 0.57 ± 0.12

## CCAAAGCAAUAUUACGGCCG
30 °C
  self-splicing fitness (ln): -0.467 ± 0.1
37 °C
  self-splicing fitness (ln): -0.508 ± 0.12

## CACAAGCAAUAUUACGACGC
30 °C
  self-splicing fitness (ln): -2.86 ± 0.32
37 °C
  self-splicing fitness (ln): -1.17 ± 0.18

## CGACAGCAAUAUUACGGAUU
30 °C
  self-splicing fitness (ln): -3.77 ± 0.17
37 °C
  self-splicing fitness (ln): -1.73 ± 0.099

## GAGUAGCAAUAUUACGCGGU
30 °C
  self-splicing fitness (ln): -3.68 ± 0.31
37 °C
  self-splicing fitness (ln): -2.78 ± 0.48

## AAUAAGCAAUAUUACGCUUC
30 °C
  self-splicing fitness (ln): -3.51 ± 0.23
37 °C
  self-splicing fitness (ln): -2.59 ± 0.23

## AUGGAGCAAUAUUACGAUGC
30 °C
  self-splicing fitness (ln): -2.15 ± 0.37
37 °C
  self-splicing fitness (ln): -2.04 ± 0.35

## CUGCAGCAAUAUUACGUCCG
30 °C
  self-splicing fitness (ln): -0.43 ± 0.094
37 °C
  self-splicing fitness (ln): 0.136 ± 0.13

## UGCAAGCAAUAUUACGCGAU
30 °C
  self-splicing fitness (ln): -3.34 ± 0.17
37 °C
  self-splicing fitness (ln): -2.15 ± 0.2

## AUGAAGCAAUAUUACGGCUC
30 °C
  self-splicing fitness (ln): -0.602 ± 0.12
37 °C
  self-splicing fitness (ln): 0.254 ± 0.13

## UUGGAGCAAUAUUACGGCCU
30 °C
  self-splicing fitness (ln): -2.26 ± 0.29
37 °C
  self-splicing fitness (ln): -1.25 ± 0.27

## UCUCAGCAAUAUUACGGAGG
30 °C
  self-splicing fitness (ln): -4.93 ± 0.29
37 °C
  self-splicing fitness (ln): -1.97 ± 0.17

## CAUAAGCAAUAUUACGACCU
30 °C
  self-splicing fitness (ln): -2.63 ± 0.28
37 °C
  self-splicing fitness (ln): -1.62 ± 0.33

## AACUAGCAAUAUUACGAAAA
30 °C
  self-splicing fitness (ln): -1.53 ± 0.16
37 °C
  self-splicing fitness (ln): -1.75 ± 0.17

## CGCGAGCAAUAUUACGCGGC
37 °C
  self-splicing fitness (ln): -2.4 ± 0.38

## AUCUAGCAAUAUUACGGCCC
30 °C
  self-splicing fitness (ln): 0.132 ± 0.2
37 °C
  self-splicing fitness (ln): -0.0846 ± 0.33

## GGCCAGCAAUAUUACGCUUC
30 °C
  self-splicing fitness (ln): -1.98 ± 0.15
37 °C
  self-splicing fitness (ln): -0.344 ± 0.11

## UCCCAGCAAUAUUACGGCUG
37 °C
  self-splicing fitness (ln): -1.42 ± 0.48

## CACUAGCAAUAUUACGGGAC
30 °C
  self-splicing fitness (ln): -3.86 ± 0.21
37 °C
  self-splicing fitness (ln): -1.7 ± 0.18

## AGUUAGCAAUAUUACGAAGG
30 °C
  self-splicing fitness (ln): -4.03 ± 0.22
37 °C
  self-splicing fitness (ln): -3.4 ± 0.28

## AAGAAGCAAUAUUACGGCCG
30 °C
  self-splicing fitness (ln): -1.47 ± 0.12
37 °C
  self-splicing fitness (ln): -0.0374 ± 0.15

## UAACAGCAAUAUUACGCUCU
30 °C
  self-splicing fitness (ln): -1.12 ± 0.073
37 °C
  self-splicing fitness (ln): -0.498 ± 0.08

## UGUAAGCAAUAUUACGUAAA
30 °C
  self-splicing fitness (ln): -2.36 ± 0.19
37 °C
  self-splicing fitness (ln): -1.02 ± 0.16
